Laboratory results from US20090271896A1 (SAMUEL ROBERTS NOBLE FOUNDATION, published 2009).

How the values were obtained:
[1] = target: T1, AtVIP2 (Arabidopsis VirE2-Interacting Protein 2), largest cDNA clone in pGAD424 (Arabidopsis thaliana, UniProt Q9FPW4 59-614); assay: yeast two-hybrid, HIS3 and beta-galactosidase reporters
T1 construct: also called At5g59710; GenBank AF295433
T1 sequence: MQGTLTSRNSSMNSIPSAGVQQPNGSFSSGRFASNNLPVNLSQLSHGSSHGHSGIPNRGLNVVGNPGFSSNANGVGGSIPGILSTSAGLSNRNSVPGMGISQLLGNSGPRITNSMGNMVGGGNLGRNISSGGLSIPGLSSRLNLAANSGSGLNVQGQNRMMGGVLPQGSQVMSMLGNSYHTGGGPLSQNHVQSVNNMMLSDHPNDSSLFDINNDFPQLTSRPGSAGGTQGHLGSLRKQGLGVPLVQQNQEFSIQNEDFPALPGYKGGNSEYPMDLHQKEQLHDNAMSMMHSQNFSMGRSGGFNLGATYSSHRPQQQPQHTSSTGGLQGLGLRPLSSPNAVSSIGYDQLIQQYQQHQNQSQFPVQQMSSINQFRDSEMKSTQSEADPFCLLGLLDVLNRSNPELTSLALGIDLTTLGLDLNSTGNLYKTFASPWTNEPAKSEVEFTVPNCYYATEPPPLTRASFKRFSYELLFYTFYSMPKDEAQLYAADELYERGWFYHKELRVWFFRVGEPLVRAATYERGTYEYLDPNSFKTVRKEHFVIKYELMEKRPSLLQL

[2] = target: T2, NbVIP2 (N. benthamiana VIP2) in pGAD424 (Nicotiana benthamiana, UniProt Q52JK6 1-603); assay: yeast two-hybrid, growth on triple dropout (-Leu/-Trp/-His) plates
T2 construct: also called pGAD-NbVIP2; GenBank DQ000202
T2 sequence: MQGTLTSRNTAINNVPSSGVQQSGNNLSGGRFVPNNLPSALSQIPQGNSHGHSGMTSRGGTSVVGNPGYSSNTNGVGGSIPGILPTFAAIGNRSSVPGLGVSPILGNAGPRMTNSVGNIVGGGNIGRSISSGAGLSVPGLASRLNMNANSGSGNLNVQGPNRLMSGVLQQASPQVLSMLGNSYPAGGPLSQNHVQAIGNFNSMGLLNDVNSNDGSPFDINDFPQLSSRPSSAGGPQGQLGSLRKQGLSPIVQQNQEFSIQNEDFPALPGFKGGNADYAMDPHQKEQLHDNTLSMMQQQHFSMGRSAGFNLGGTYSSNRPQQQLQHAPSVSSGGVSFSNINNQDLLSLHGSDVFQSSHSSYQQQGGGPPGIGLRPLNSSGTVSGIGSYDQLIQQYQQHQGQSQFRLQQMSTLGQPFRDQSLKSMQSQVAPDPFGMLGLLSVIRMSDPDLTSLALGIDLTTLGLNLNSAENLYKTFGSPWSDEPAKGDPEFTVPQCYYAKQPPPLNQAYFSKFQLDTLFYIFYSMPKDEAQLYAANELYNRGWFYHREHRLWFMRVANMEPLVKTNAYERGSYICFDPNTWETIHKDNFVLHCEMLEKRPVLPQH

B1: human lamin C (other)
chain: SEEVVSREVSGIKAAYEAELGDARKTLDSVAKERARLQLELSKVREEFKELKARNTKKEGDLIAAQARLKDLEALLNSKEAALSTALSEKRTLEGELHDLRGQVAKLEAALGEAKKQLQDEMLRRVDAENRLQTMKEELDFQKNIYSEELRETKRRHETRLVEID
notes: also called pSTT-LaminC
B1: no binding [1]; no binding [2].
